Values of other authors as cited in publication PMC12462375.

How the values were obtained:
[1] = target: basigin (Homo sapiens) (UniProt P35613)
[2] = target: CD47 (Homo sapiens) (UniProt Q08722)

UniProt P35613, sequence (P35613 22-325): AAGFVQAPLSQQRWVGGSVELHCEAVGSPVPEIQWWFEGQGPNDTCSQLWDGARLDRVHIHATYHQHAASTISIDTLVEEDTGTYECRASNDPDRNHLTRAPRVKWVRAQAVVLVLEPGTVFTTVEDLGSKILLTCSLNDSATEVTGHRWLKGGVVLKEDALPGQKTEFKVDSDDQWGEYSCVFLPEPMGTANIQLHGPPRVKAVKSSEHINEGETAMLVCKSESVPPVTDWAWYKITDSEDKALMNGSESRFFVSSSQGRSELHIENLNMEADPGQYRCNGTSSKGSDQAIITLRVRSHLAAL

In the case of PfRH5 (from UniProt Q8IFM5), the Kd [1] is given as 1100 nM.

For SIRPα (PDB 4CMM) (from UniProt P78324), the Kd [2] is given as 740 nM.
